Results as given in PMC8891371.

Legend:
[1] = molecular target: axolotl Melanocortin-4 receptor, N-terminally 3×HA tagged (Ambystoma mexicanum (Mexican axolotl))
[2] = molecular target: axolotl Melanocortin-3 receptor, N-terminally 3×HA tagged (Ambystoma mexicanum (Mexican axolotl))

| Substance | cAMP luminescent assay (pCRE-Luc, Dual-Glo) in HEK293T, logEC50; MC4R:MRAP2 plasmid ratio 1:0 [1] [log M] | cAMP luminescent assay (pCRE-Luc, Dual-Glo) in HEK293T, logEC50; MC4R:MRAP2 plasmid ratio 1:1 [1] [log M] | cAMP luminescent assay (pCRE-Luc, Dual-Glo) in HEK293T, logEC50; MC4R:MRAP2 plasmid ratio 1:3 [1] [log M] | cAMP luminescent assay (pCRE-Luc, Dual-Glo) in HEK293T, logEC50; MC4R:MRAP2 plasmid ratio 1:6 [1] [log M] | cAMP luminescent assay (pCRE-Luc, Dual-Glo) in HEK293T, logEC50; MC3R:MRAP2 plasmid ratio 1:0 [2] [log M] | cAMP luminescent assay (pCRE-Luc, Dual-Glo) in HEK293T, logEC50; MC3R:MRAP2 plasmid ratio 1:1 [2] [log M] | cAMP luminescent assay (pCRE-Luc, Dual-Glo) in HEK293T, logEC50; MC3R:MRAP2 plasmid ratio 1:3 [2] [log M] | cAMP luminescent assay (pCRE-Luc, Dual-Glo) in HEK293T, logEC50; MC3R:MRAP2 plasmid ratio 1:6 [2] [log M] |
| --- | --- | --- | --- | --- | --- | --- | --- | --- |
| Human α-melanocyte stimulating hormone (peptide) | -9.84 | -10 | -9.37 | -9.06 | -9.95 | -9.29 | -9.04 | -8.98 |
| human adrenocorticotropin ACTH (1–24) (peptide) | -9.62 | -10.1 | -10.1 | -10.3 | -9.51 | -9.47 | -9.4 | -9.55 |
